Measured values from the nanobody polyreactivity screen of Harvey et al. (2022).

Assay: yeast display, Sf9 membrane polyspecificity reagent, FACS + sequencing; frameworks hold sequencing errors
Procedure, shortened: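 Nanobodies came from a synthetic yeast display library in Saccharomyces cerevisiae BJ5465, induced with galactose for 36–48 hours and stained for 1 hour at 4 °C with 10% biotinylated, detergent-solubilized Sf9 membrane reagent. Cells were enriched on streptavidin microbeads and then FACS-sorted, with low and high (top ~1%) gates set on anti-HA fluorescence for expression and streptavidin fluorescence for reagent binding. Each polyreactivity label reflects the gate a clone came from. Genes were amplified by colony PCR, sequenced by MiSeq 2 × 250 and filtered by CDR length.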

Sequence	polyreactivity (PSR sort gate)
QVQLVESGGGLVQAGGSLRLSCAASGRIFCSYTMGWYRQAPGKERELVAAISWRGGSTYYADSVKGRFTISRDNAKNTVYLQMNSLKPEDTAVYYCAADSRSPPGDYWGQGTQVTVSS	low polyreactivity
QVQLVESGGGLVQAGGSLRLSCAASGRIFCVNAMGWYRQAPGKERELVAAINVSGGITYYADSVKGRFTISRDNAKNTVYLQMKSLKPEDTAVYYCAAVHWTWYTYYGPDYDYWGQGTQVTVSS	low polyreactivity
QVQLVESGGGLVQAGGSLRLSCAASGRIFDAYAMGWYRQAPGKERELLAAITQSGGSTFYADSVKGRFTISRDNAKNTVYLQMNSLKPEDTAVYYCAKDKFWFRVDGHYRMDYWGQGTQVTVSS	low polyreactivity
QVQLVESGGGLVQAGGSLRLSCAASGRIFDCYAMGWDRQAPGKERELVAAIRASGGRTYYADSVKGRFTISRDNAKNTVYLQMNSLKPEDTAVYYCAADSVKYGGDYGGQGTQVTVSS	high polyreactivity
QVQLVESGGGLVQAGGSLRLSCAASGRIFDDNTMGWSRQAPGKERELVAAISSGTSTYYADSVKGRFTISRDNAKNTVYLQMNSLKPEDTAVYYCAAVIKWTKDDYWGQGTQVTVSS	high polyreactivity
QVQLVESGGGLVQAGGSLRLSCAASGRIFDDYAMGWYRPAPGKERELVAAISSSGGSTYYADSLKGRFTISRDNAKNTVYLQINSLKPEDTAVYFCAASSFRSYYSGKYDYWGQGTQVTVSS	high polyreactivity
QVQLVESGGGLVQAGGSLRLSCAASGRIFDENAMGWYRQAPGKERELVATISSSGVSTSYADSVKGRFTISRDNAKNTVYLQMNSLKPEDTAVYYCNAGYRRRYKFDYWGQGTQVTVSS	low polyreactivity
QVQLVESGGGLVQAGGSLRLSCAASGRIFDENAMGWYRQAPGKERELVATISSSGVSTSYADSVKGRFTISRDNAKNTVYLQMNSLKPEDTAVYYCNAGYRRRYKFVYWGQGTQVTVSS	low polyreactivity
QVQLVESGGGLVQAGGSLRLSCAASGRIFDGNAMGWYRQAPGKERELVAAISWTGGSTYYADSVKGRFTISRDNAKNTVYLQMNSLKPEDTAVYYCAADSGWWLDQWSWYDYWGQGTQVTVSS	low polyreactivity
QVQLVESGGGLVQAGGSLRLSCAASGRIFDGNTMGWYRQAPGKERELVAAISGGGSTDYADSVKGRFTISRDNAKNTVYLQMNSLKPEDTAVYYCAATTGPVPLKGDYWGQGTQVTVSS	low polyreactivity
QVQLVESGGGLVQAGGSLRLSCAASGRIFDGYDMGGYRQAPGQEREWVAAITSVGSTNYADSVKGRFTISRDNAKNTVYLQMNSLKPDDTAVYYCAAVLYVFYDDYGYWEYFSQYDYWGQGTQVTVSS	low polyreactivity
QVQLVESGGGLVQAGGSLRLSCAASGRIFDKYTMGWYRQAPGKERELVATMTRGGVSTYYADSVKGRFTISRDNAKNTVYLQMNSLKPEDTAVYYCNAVWRLRVRYGYWGQGTHVTVSS	high polyreactivity
QVQLVESGGGLVQAGGSLRLSCAASGRIFDKYTMGWYRQAPWKERELVPAISKSGSGTFYADSVKGRFTISRDNAKNTVYLQMNSLKPEDTAVYYCARVYTVGSGRSWRLDYWGQGTQVTVSS	high polyreactivity
QVQLVESGGGLVQAGGSLRLSCAASGRIFDLNAMGWYRPAPGKERELVAAITNTGSTNYADSVKGRFTISRDNAKNTVYLQMNSLKPEDTAVYYCARTYWLRYYGYRDDEYDYWGQGTQVTVSS	low polyreactivity
QVQLVESGGGLVQAGGSLRLSCAASGRIFDLNAMGWYRQAPGKERELVAAITFSGGDTYADSVKGRFTISRDNAKNTVYLEMYSLKPEDTAVYYCAKDHYGDDTYGTPYDYDYWGQGTQVTVSS	low polyreactivity
QVQLVESGGGLVQAGGSLRLSCAASGRIFDLNAMGWYRQAPGKERELVADINSGGSTYYADSVKGRFTISRDNAKNTVYLQMNSLKPEDTAVYYCAVRRNQHVVQMYYWGQGTQVTVSS	low polyreactivity
QVQLVESGGGLVQAGGSLRLSCAASGRIFDLNVMGWYRQAPGKERELVAAIRSGGRTNYADSVKGRFTISRDNAKNTVYLQMNSLKPEDTAVYYCNVRRGYWHPRYGWANYDYWGQGTQVTVSS	high polyreactivity
QVQLVESGGGLVQAGGSLRLSCAASGRIFDLYAMGWYRQAPGKERELVATISGSGGSTYYADSVKGRFTISRDNAKNTVYLQMNSLKPEDTAVFYCAAVSVSSWYDYWGLGTQVTVSS	low polyreactivity
QVQLVESGGGLVQAGGSLRLSCAASGRIFDLYTMGWYRQAPGKERELVAAIRWSDGSTYYADSVKGRFTISRDNAKNTVYLQMNSLKPEDTAVYYCAADSRTSYYNDDYDYWGQGTQVTVSS	low polyreactivity
QVQLVESGGGLVQAGGSLRLSCAASGRIFDLYTMGWYRQAPGKERELVAAIRWSDGSTYYADSVKGRFTISRDNAKNTVYLQMNSLKPEDTAVYYCNRDPPRVLWYYLLSDSKLDSWGQGTQVTVSS	low polyreactivity
QVQLVESGGGLVQAGGSLRLSCAASGRIFDNNAMGWYRQAPGKERELVAAIDWRGGSTDYADSVKGRFTISRDNAKNNVYLHMNSLKQEDTAVYYCVAGHVRYWHGYSYDYWGQGTQVTVSS	low polyreactivity
QVQLVESGGGLVQAGGSLRLSCAASGRIFDPYAMGWYRQAPGKERELVASISWSGGRTYYADSVKGRFTISRDNAKNTVYLQMNSLKPEDTAVYYCARDYGQYGWYRYGRTYDHWGQGTQVTVSS	high polyreactivity
